{"source": "IntAct's records for PubMed 19536131", "parents": {"B1": {"name": "E3 ubiquitin-protein ligase makorin-1 (Homo sapiens), Q9UHC7 (parent)", "chain": "MAEAATPGTTATTSGAGAAAATAAAASPTPIPTVTAPSLGAGGGGGGSDGSGGGWTKQVTCRYFMHGVCKEGDNCRYSHDLSDSPYSVVCKYFQRGYCIYGDRCRYEHSKPLKQEEATATELTTKSSLAASSSLSSIVGPLVEMNTGEAESRNSNFATVGAGSEDWVNAIEFVPGQPYCGRTAPSCTEAPLQGSVTKEESEKEQTAVETKKQLCPYAAVGECRYGENCVYLHGDSCDMCGLQVLHPMDAAQRSQHIKSCIEAHEKDMELSFAVQRSKDMVCGICMEVVYEKANPSERRFGILSNCNHTYCLKCIRKWRSAKQFESKIIKSCPECRITSNFVIPSEYWVEEKEEKQKLILKYKEAMSNKACRYFDEGRGSCPFGGNCFYKHAYPDGRREEPQRQKVGTSSRYRAQRRNHFWELIEERENSNPFDNDEEEVVTFELGEMLLMLLAAGGDDELTDSEDEWDLFHDELEDFYDLDL"}}}
{"variants_of": "B1", "conditions": "with ubc_human UBC"}
{"variant": "H307E", "effect of a mutation on the interaction": "disrupting interaction"}
